The target of data set [1] is T1, Csa3a (Sulfolobus islandicus REY15A) (UniProt F0NH46).
T1 sequence: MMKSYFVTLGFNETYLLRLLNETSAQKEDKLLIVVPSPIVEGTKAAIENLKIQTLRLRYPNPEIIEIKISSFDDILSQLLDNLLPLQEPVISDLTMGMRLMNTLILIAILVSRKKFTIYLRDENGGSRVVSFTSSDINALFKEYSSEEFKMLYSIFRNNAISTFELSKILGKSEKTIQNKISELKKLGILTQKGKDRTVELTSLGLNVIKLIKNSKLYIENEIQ
In words: EMSA. As to conditions: EMSA: 20 mM Tris-HCl pH 8.0, 50 mM KCl, 5% glycerol, 1 mM EDTA, 1 mM DTT, 5 ng/ul poly(dI-dC), 10 pmol probe in 20 ul, 40 C 20 min; footprinting: 10 mM …. A general note: Mobility shift assays separate free from complexed probe on a gel.

For data set [2], the target named is T2, Csa3a (Sulfolobus islandicus REY15A, UniProt F0NH46 1-224).
T2 sequence: T1 sequence
In words: EMSA; Csa3a 2.4-6 pmol/ul; EMSA: 20 mM Tris-HCl pH 8.0, 50 mM KCl, 5% glycerol, 1 mM EDTA, 1 mM DTT, 5 ng/ul poly(dI-dC), 10 pmol probe in 20 ul, 40 C 20 min; footprinting: 10 mM Tris-HCl pH 7.4, 10 mM MgCl2, 1 mM CaCl2, 0.4 mM DTT, 100 mM KCl, 5% glycerol, 40 C 20 min. As to conditions: protein: recombinant; chain copies: 2; label: 5' biotin (one strand); blunt.

Data set [3] has as its target T2, Csa3a. As to the kind of experiment: EMSA; Csa3a 1.6 pmol/ul; EMSA: 20 mM Tris-HCl pH 8.0, 50 mM KCl, 5% glycerol, 1 mM EDTA, 1 mM DTT, 5 ng/ul poly(dI-dC), 10 pmol probe in 20 ul, 40 C 20 min; footprinting: 10 mM Tris-HCl pH 7.4, 10 mM MgCl2, 1 mM CaCl2, 0.4 mM DTT, 100 mM KCl, 5% glycerol, 40 C 20 min. As to conditions: protein: recombinant; chain copies: 2; label: 5' biotin (one strand); blunt.

Data set [4] has as its target T2, Csa3a. In words: EMSA; Csa3a 0.4-1.6 pmol/ul; EMSA: 20 mM Tris-HCl pH 8.0, 50 mM KCl, 5% glycerol, 1 mM EDTA, 1 mM DTT, 5 ng/ul poly(dI-dC), 10 pmol probe in 20 ul, 40 C 20 min; footprinting: 10 mM Tris-HCl pH 7.4, 10 mM MgCl2, 1 mM CaCl2, 0.4 mM DTT, 100 mM KCl, 5% glycerol, 40 C 20 min. The note with it: protein: recombinant; chain copies: 2; label: 5' biotin.

With “TATATTTTCCATTATTCTTCATCAAGAGGAAAATCGTCGTTTATTAAGATTATCCTTACTAAAGTCGGGAAGAAATTTACAAGGATCATTATTGTGTATTTTAGATTCTTTTTGC (double strand) [csa1 promoter P2 (-118 to -4)]”, in data set [1], the binding entry was “binds”.

As for “GCAAAAAGAATCTAAAATACACAATAATGATCCTTGTAAATTTCTTCCCGACTTTAGTAAGGATAATCTTAATAAACGACGATTTTCCTCTTGATGAAGAATAATGGAAAATATAGGGAAAGTGTTCTCCCGTATACGATCCTTGTTTTCCTTTTTCCTTGTTTCGTTTTGGGTTAGGTTGTTATCCTAAATTCATTATCTT (double strand) [csa1 promoter P1 (-205 to -4)]”, in data set [1], the binding entry is “binds”.

B1: cas1 P2 (-35 to -10) (dsDNA)
DNA 1: TTAAGACCTTAATAATATCGGAATAT
DNA 2: ATATTCCGATATTATTAAGGTCTTAA
On to B1, for which the binding result in the data set with Csa3a [2] is listed as “no binding”.

B2: csa1 promoter P3 (-42 to -4) (dsDNA)
DNA 1: TTACAAGGATCATTATTGTGTATTTTAGATTCTTTTTGC
DNA 2: GCAAAAAGAATCTAAAATACACAATAATGATCCTTGTAA
As to B2, in the data set with Csa3a [3], the binding result is recorded as “no binding”.

B3: csa1 25-bp minimal region (dsDNA)
DNA 1: ATCCTTACTAAAGTCGGGAAGAAATT
DNA 2: AATTTCTTCCCGACTTTAGTAAGGAT
Consider B3, for which, in the data set with Csa3a [4], the binding result was “binds”.

Source of the values: article PMC4333418, “Transcriptional regulator-mediated activation of adaptation genes triggers CRISPR de novo spacer acquisition”.
